# Test results from US20110311550A1.
# How the values were obtained:
# Assay in all cases: ELISA, lectin-captured E1E2 lysate, Ab 1 ug/ml
# [1] = biological target: E1E2 complex (H77) with E1 mutation T204A (HCV genotype 1a, isolate H77) (UniProt P27958)
# [2] = biological target: E1E2 complex (H77) with E1 mutation M322A (HCV genotype 1a, isolate H77) (UniProt P27958)
# [3] = biological target: E1E2 complex (H77) with E1 mutation P224A (HCV genotype 1a, isolate H77) (UniProt P27958)
# [4] = biological target: E1E2 complex (H77) with E1 mutation N305A (HCV genotype 1a, isolate H77) (UniProt P27958)
# [5] = biological target: E1E2 complex (H77) with E2 mutation N623A (HCV genotype 1a, isolate H77) (UniProt P27958)
# [6] = biological target: E1E2 complex (H77) with E1 mutation S327A (HCV genotype 1a, isolate H77) (UniProt P27958)
# [7] = biological target: E1E2 complex (H77) with E1 mutation N196A (HCV genotype 1a, isolate H77) (UniProt P27958)
# [8] = biological target: E1E2 complex (H77) with E1 mutation N325A (HCV genotype 1a, isolate H77) (UniProt P27958)
# [9] = biological target: E1E2 complex (H77) with E1 mutation T292A (HCV genotype 1a, isolate H77) (UniProt P27958)
# [10] = biological target: E1E2 complex (H77) with E2 mutation Y443A (HCV genotype 1a, isolate H77) (UniProt P27958)
# [11] = biological target: E1E2 complex (H77) with E2 mutation L427A (HCV genotype 1a, isolate H77) (UniProt P27958)
# [12] = biological target: E1E2 complex (H77) with E2 mutation F447A (HCV genotype 1a, isolate H77) (UniProt P27958)
# [13] = biological target: E1E2 complex (H77) with E1 mutation M324A (HCV genotype 1a, isolate H77) (UniProt P27958)
# [14] = biological target: E1E2 complex (H77) with E1 mutation F293A (HCV genotype 1a, isolate H77) (UniProt P27958)
# [15] = biological target: E1E2 complex (H77) with E2 mutation L441A (HCV genotype 1a, isolate H77) (UniProt P27958)
# [16] = biological target: E1E2 complex (H77) with E2 mutation F442A (HCV genotype 1a, isolate H77) (UniProt P27958)
# [17] = biological target: E1E2 complex (H77) with E2 mutation Y618A (HCV genotype 1a, isolate H77) (UniProt P27958)
# [18] = biological target: E1E2 complex (H77) with E2 mutation A643G (HCV genotype 1a, isolate H77) (UniProt P27958)
# [19] = biological target: E1E2 complex (H77) with E2 mutation E637A (HCV genotype 1a, isolate H77) (UniProt P27958)
# [20] = biological target: E1E2 complex (H77) with E1 mutation D206A (HCV genotype 1a, isolate H77) (UniProt P27958)
# [21] = biological target: E1E2 complex (H77) with E1 mutation P228A (HCV genotype 1a, isolate H77) (UniProt P27958)
# [22] = biological target: E1E2 complex (H77) with E1 mutation N305A/N234A (HCV genotype 1a, isolate H77) (UniProt P27958)
# [23] = biological target: E1E2 complex (H77) with E2 mutation P619A (HCV genotype 1a, isolate H77) (UniProt P27958)
# [24] = biological target: E1E2 complex (H77) with E1 mutation M323A (HCV genotype 1a, isolate H77) (UniProt P27958)
# [25] = biological target: E1E2 complex (H77) with E1 mutation G278A (HCV genotype 1a, isolate H77) (UniProt P27958)
# [26] = biological target: E1E2 complex (H77) with E1 mutation P328A (HCV genotype 1a, isolate H77) (UniProt P27958)
# [27] = biological target: E1E2 complex (H77) with E1 mutation M318A (HCV genotype 1a, isolate H77) (UniProt P27958)
# [28] = biological target: E1E2 complex (H77) with E1 mutation T329A (HCV genotype 1a, isolate H77) (UniProt P27958)
# [29] = biological target: E1E2 complex (H77) with E2 mutation T621A (HCV genotype 1a, isolate H77) (UniProt P27958)
substance,measurement,setting,value
mouse anti-E1 MAb A4 (antibody),Binding relative to wt (%),[1],102%
same,Binding relative to wt (%),[2],115%
same,Binding relative to wt (%),[3],99%
same,Binding relative to wt (%),[4],123%
same,Binding relative to wt (%),[5],116%
same,Binding relative to wt (%),[6],85%
same,Binding relative to wt (%),[7],45%
same,Binding relative to wt (%),[8],83%
same,Binding relative to wt (%),[9],90%
same,Binding relative to wt (%),[10],28%
same,Binding relative to wt (%),[11],102%
same,Binding relative to wt (%),[12],98%
same,Binding relative to wt (%),[13],80%
same,Binding relative to wt (%),[14],87%
same,Binding relative to wt (%),[15],111%
same,Binding relative to wt (%),[16],90%
same,Binding relative to wt (%),[17],157%
same,Binding relative to wt (%),[18],131%
same,Binding relative to wt (%),[19],122%
same,Binding relative to wt (%),[20],81%
same,Binding relative to wt (%),[21],171%
same,Binding relative to wt (%),[22],109%
same,Binding relative to wt (%),[23],108%
same,Binding relative to wt (%),[24],69%
same,Binding relative to wt (%),[25],58%
same,Binding relative to wt (%),[26],123%
same,Binding relative to wt (%),[27],97%
same,Binding relative to wt (%),[28],89%
same,Binding relative to wt (%),[29],114%
